Patent US8974802B2, “Medicament for the treatment of cancer of the pancreas” (Erytech Pharma, priority 2007, dated 2015)

What was measured:
[1] = tested on: Mia PaCa-2 human pancreatic tumour cells; experiment: Growth inhibition of human pancreatic tumours (Mia PaCa-2) in nude mice; assay type: in vivo; details: after 57 days, L-Aspa RBC single 200 IU/kg i.v., gemcitabine 4 x 60 mg/kg i.v.
Description: The purpose of this experiment is to inject L-Aspa RBC into mice bearing human pancreatic tumours and to observe a tumour growth inhibition. A cell line sensitive to L-asparaginase in vitro, and deficient in L-asparagine synthase, was selected: Mia PaCa-2. To study the tumour growth inhibition after the injection of L-Aspa RBC, an in vivo protocol was set up with 4 groups of 12 mice. A reference treatment for cancer of the pancreas, gemcitabine, is included in the protocol. Human pancreatic tumour cells (Mia PaCa-2) in exponential growth phase (origin ATCC: American Type Culture Collection) were subjected to tryptic digestion, then counted and washed before finally being resuspended in a DMEM serum-free medium in order for them to be injected subcutaneously into 48 athymic nude/nude mice. The 48 athymic nude/nude (nude balb/c) mice, aged 5-6 weeks and between 18 and 22 g in weight, were supplied by Harlan (France). The animals were kept for 7 days in a specialized SPF (specific-pathogen-free) unit before the treatment. The 48 mice were divided randomly into 4 groups of 12 mice. […]

[2] = tested on: PANC-1 human pancreatic tumor (clone no. 6sC); experiment: In vivo anti-tumoral study in mice bearing pancreatic tumor PANC-1; details: day 43, L-aspa RBC single 200 IU/kg i.v., gemcitabine 4 x 80 mg/kg i.v.
Description: The objective of this study was to assess the antitumoral effects of L-asparaginase encapsulated in red blood cells (L-aspa RBC) administered in a human pancreatic tumor (PANC-1) xenograft model.
In this study, 4 groups of 15 mice received either L-asparaginase encapsulated in red blood cells, gemcitabine (reference treatment in pancreatic cancer), a combination of both agents or control item. A last group of 10 mice received no treatment and was used as control group.
A Log-growing culture of human pancreatic tumor cells, PANC-1 (obtained from ECCAC, UK), was subcloned and the clone no.
Clone no 6sC was trypsinized, counted, washed and resuspended in serum-free DMEM medium for sub-cutaneous injection to 100 nu/nu athymic mice.
Hundred athymic Nude mice of 5 week-old, weighing 20 g+/−3 g were supplied by Harlan France. […]
Four days after cell implantation, tumor volumes were measured and ranked according to size and median was calculated. […]
Tumor measurements were recorded 3 times a week (on Mondays, Wednesday and Friday) during 43 days.
The relative tumor volume is calculated by dividing the tumor volume at a given day by the tumor volume before treatment avoiding the bias due to statistical difference in tumor volume between groups on the day of injection.

[3] = tested on: MIA Paca-2 cells; details: nude mice; PEG-asparaginase 12.5 or 25 IU/g per day i/p for 14 days; gemcitabine 80 mg/kg i/p days 1, 4, 7, 10; cited from earlier work
[4] = tested on: MIA Paca-2 cells; details: PEG-asparaginase 0.8 kIU/kg; gemcitabine 80 mg/kg; mice; cited from earlier work
[5] = tested on: MIA Paca-2 cells; details: cited from earlier work
[6] = tested on: PANC-1 cells; details: cited from earlier work
[7] = tested on: human pulmonary and melanoma cells; details: Yunis et al. 1977; cited from earlier work
[8] = tested on: pancreatic carcinoma; details: cited from earlier work
[9] = direct injection; cited from earlier work
[10] = tested on: BxPC-3 cells; details: 10 IU/ml; Denis et al. 1999; cited from earlier work
[11] = tested on: PANC 10.05; details: AACR 2006; cited from earlier work
[12] = tested on: CFPAC-2; details: AACR 2006; cited from earlier work
[13] = tested on: AsPC-1; details: AACR 2006; cited from earlier work
[14] = tested on: solid tumor; details: trial suspended; cited from earlier work

With Nc1ccn([C@@H]2O[C@H](CO)[C@@H](O)C2(F)F)c(=O)n1 [gemcitabine] as the molecule, how does the tumour volume [1] read?
Its tumour volume is 1353±1016 mm^3.

What about the “mouse survival (mice remaining / still alive)” value [2] of the same molecule?
The value was 20%.

And the relative tumor volume ([2]; tumor volume divided by volume before treatment)?
Its relative tumor volume is 51.8±17.1.

And the “cell growth inhibition in vivo” value [3]?
Its value is 63.5%.

And the “decrease of tumour volume” value [4]?
The value was 29%.

B1: asparaginase (protein, UniProt P00805 23-348, looked up)
L-asparaginase 2: LPNITILATGGTIAGGGDSATKSNYTVGKVGVENLVNAVPQLKDIANVKGEQVVNIGSQDMNDNVWLTLAKKINTDCDKTDGFVITHGTDTMEETAYFLDLTVKCDKPVVMVGAMRPSTSMSADGPFNLYNAVVTAADKASANRGVLVVMNDTVLDGRDVTKTNTTDVATFKSVNYGPLGYIHNGKIDYQRTPARKHTSDTPFDVSKLNELPKVGIVYNYANASDLPAKALVDAGYDGIVSAGVGNGNLYKSVFDTLATAAKTGTAVVRSSRVPTGATTQDAEVDDAKYGFVASGTLNPQKARVLLQLALTQTKDPQQIQQIFNQY
notes: bacterial enzyme, CAS number 9015-68-3, hydrolyses and depletes asparagine
Which “inhibition of cell growth” value ([5]; 0.0025 IU/ml, Wu et al. 1982) does the source give for B1 here?
Its value is “no effect”.

And the “effect on the growth of the cells” value ([5]; 0.1 IU/ml, Yunis et al. 1977)?
The value was “significant effect on the growth of the cells”.

What about the “effect on cell growth” value ([5]; 0.5 and 1 IU/ml, Yunis et al. 1977) of the same molecule?
Its value is “total inhibition of cell growth with cell death”.

And the “inhibition of cell growth” value ([6]; 0.0025 IU/ml, Wu et al. 1982)?
The value was “no effect”.

And the “effect on cell growth” value ([6]; 1 IU/ml, Yunis et al. 1977)?
The value was “has an effect”.

And the effect on growth [7]?
Its effect on growth is “no effect”.

What about the side-effects ([8]; IV 1000 IU/kg/day, ten patients with inoperable pancreatic cancer, treatment stopped early) of the same molecule?
The side-effects was “Serious side-effects appeared rapidly”.

What about the clinical response ([8]; two of the patients, Lessner 1977) of the same molecule?
The clinical response was “no response”.

What about the allergic reaction incidence [9] of the same molecule?
The allergic reaction incidence was 27%.

B2: PEG-asparaginase: pegylated form of asparaginase (Oncaspar, Enzon Pharmaceuticals) (protein, UniProt P00805 23-348, looked up)
L-asparaginase 2: LPNITILATGGTIAGGGDSATKSNYTVGKVGVENLVNAVPQLKDIANVKGEQVVNIGSQDMNDNVWLTLAKKINTDCDKTDGFVITHGTDTMEETAYFLDLTVKCDKPVVMVGAMRPSTSMSADGPFNLYNAVVTAADKASANRGVLVVMNDTVLDGRDVTKTNTTDVATFKSVNYGPLGYIHNGKIDYQRTPARKHTSDTPFDVSKLNELPKVGIVYNYANASDLPAKALVDAGYDGIVSAGVGNGNLYKSVFDTLATAAKTGTAVVRSSRVPTGATTQDAEVDDAKYGFVASGTLNPQKARVLLQLALTQTKDPQQIQQIFNQY
modifications: PEG
With B2 as the molecule, how does the cell growth inhibition ([5]; 1 IU/ml, Denis et al. 1999) read?
Its cell growth inhibition is 61%.

What about the “in vitro cytotoxicity (IC50)” value ([5]; AACR 2006) of the same molecule?
Its value is 0.66 IU/ml.

What about the IC50 ([5]; Denis et al. 1999) of the same molecule?
Its IC50 is 0.13 IU/ml.

And the cell growth inhibition ([6]; 1 IU/ml, Denis et al. 1999)?
Its cell growth inhibition is 100%.

And the “in vitro cytotoxicity (IC50)” value ([6]; AACR 2006)?
The value was 0.27 IU/ml.

What about the IC50 ([6]; Denis et al. 1999) of the same molecule?
The IC50 was 0.25 IU/ml.

And the cell growth inhibition [10]?
Its cell growth inhibition is 51%.

And the “in vitro cytotoxicity (IC50)” value [11]?
Its value is 0.46 IU/ml.

And the “in vitro cytotoxicity (IC50)” value [12]?
Its value is “greater than 20 IU/ml”.

And the “in vitro cytotoxicity (IC50)” value [13]?
The value was “greater than 20 IU/ml”.

And the “cell growth inhibition in vivo” value [3]?
Its value is 59%.

What about the “decrease of tumour volume” value [4] of the same molecule?
Its value is 14%.

And the clinical trial outcome [14]?
The clinical trial outcome was “toxicity was reached before efficacy”.
